Measured values taken from article doi:10.1101/2024.12.02.626350 (bioRxiv, 2024).

T1: nicotinic acetylcholine receptor (nAChR) δ subunit, muscle-type, Torpedo (Tetronarce californica, UniProt P02718 22-522)
T1 sequence: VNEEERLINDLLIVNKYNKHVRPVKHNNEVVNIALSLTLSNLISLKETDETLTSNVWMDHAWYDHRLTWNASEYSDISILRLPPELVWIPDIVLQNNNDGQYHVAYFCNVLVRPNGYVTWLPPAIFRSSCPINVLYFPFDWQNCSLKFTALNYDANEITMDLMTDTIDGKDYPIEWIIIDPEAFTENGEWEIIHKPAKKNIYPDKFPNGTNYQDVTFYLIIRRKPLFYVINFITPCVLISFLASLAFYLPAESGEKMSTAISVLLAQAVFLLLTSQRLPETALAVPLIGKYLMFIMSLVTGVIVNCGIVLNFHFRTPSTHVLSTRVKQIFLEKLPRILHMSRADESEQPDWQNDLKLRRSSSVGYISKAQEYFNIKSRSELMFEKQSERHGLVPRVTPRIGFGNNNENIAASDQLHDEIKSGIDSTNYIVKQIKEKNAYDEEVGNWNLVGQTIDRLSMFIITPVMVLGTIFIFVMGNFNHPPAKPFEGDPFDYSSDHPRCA

B1: nicotinic acetylcholine receptor (nAChR) β subunit, muscle-type, Torpedo (natural protein)
chain: SVMEDTLLSVLFETYNPKVRPAQTVGDKVTVRVGLTLTNLLILNEKIEEMTTNVFLNLAWTDYRLQWDPAAYEGIKDLRIPSSDVWQPDIVLMNNNDGSFEITLHVNVLVQHTGAVSWQPSAIYRSSCTIKVMYFPFDWQNCTMVFKSYTYDTSEVTLQHALDAKGEREVKEIVINKDAFTENGQWSIEHKPSRKNWRSDDPSYEDVTFYLIIQRKPLFYIVYTIIPCILISILAILVFYLPPDAGEKMSLSISALLAVTVFLLLLADKVPETSLSVPIIIRYLMFIMILVAFSVILSVVVLNLHHRSPNTHTMPNWIRQIFIETLPPFLWIQRPVTTPSPDSKPTIISRANDEYFIRKPAGDFVCPVDNARVAVQPERLFSEMKWHLNGLTQPVTLPQDLKEAVEAIKYIAEQLESASEFDDLKKDWQYVAMVADRLFLYVFFVICSIGTFSIFLDASHNVPPDNPFA
B2: nicotinic acetylcholine receptor (nAChR) α subunit, muscle-type, Torpedo (natural protein)
chain: SEHETRLVANLLENYNKVIRPVEHHTHFVDITVGLQLIQLISVDEVNQIVETNVRLRQQWIDVRLRWNPADYGGIKKIRLPSDDVWLPDLVLYNNADGDFAIVHMTKLLLDYTGKIMWTPPAIFKSYCEIIVTHFPFDQQNCTMKLGIWTYDGTKVSISPESDRPDLSTFMESGEWVMKDYRGWKHWVYYTCCPDTPYLDITYHFIMQRIPLYFVVNVIIPCLLFSFLTGLVFYLPTDSGEKMTLSISVLLSLTVFLLVIVELIPSTSSAVPLIGKYMLFTMIFVISSIIITVVVINTHHRSPSTHTMPQWVRKIFIDTIPNVMFFSTMKRASKEKQENKIFADDIDISDISGKQVTGEVIFQTPLIKNPDVKSAIEGVKYIAEHMKSDEESSNAAEEWKYVAMVIDHILLCVFMLICIIGTVSVFAGRLIELSQEG

How the values were obtained:
[1] = target: T1, nicotinic acetylcholine receptor …; experiment: cryo-EM structure
[2] = target: B1; experiment: cryo-EM structure

| Binder | binding result [1] | binding result [2] |
| --- | --- | --- |
| B1 | binds |  |
| B2 |  | binds |
